Assay results taken from patent publication US20260216242A1 (ALMAC DISCOVERY, published 2026).
Positions count from the first letter of the chain named. Names and notes keep the numbering of the source. Each block holds one binder with its values, some of them ahead of it.

Key:
human ALPL on CHO cells = target: T1, human ALPL on CHO cells (human, UniProt P05186 18-501); experiment: flow cytometry, CHO cells stably expressing human ALPL; PDC detected with FITC anti-human Ab
T1 construct: whole, on cells; also called CHO-ALPL
T1 sequence (looked up): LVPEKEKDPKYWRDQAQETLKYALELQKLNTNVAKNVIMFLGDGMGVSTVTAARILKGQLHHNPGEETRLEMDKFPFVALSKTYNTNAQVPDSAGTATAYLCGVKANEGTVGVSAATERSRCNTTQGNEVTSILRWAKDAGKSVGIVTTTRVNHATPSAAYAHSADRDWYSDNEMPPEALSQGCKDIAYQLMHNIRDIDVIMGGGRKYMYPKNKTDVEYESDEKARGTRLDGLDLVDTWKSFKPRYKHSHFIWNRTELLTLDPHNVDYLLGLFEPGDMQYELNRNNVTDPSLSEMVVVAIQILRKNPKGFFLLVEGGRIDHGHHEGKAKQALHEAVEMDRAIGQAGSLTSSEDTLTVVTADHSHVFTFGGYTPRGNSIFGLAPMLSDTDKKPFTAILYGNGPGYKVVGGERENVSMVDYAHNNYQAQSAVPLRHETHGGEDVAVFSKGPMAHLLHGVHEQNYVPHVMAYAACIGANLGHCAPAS
Experimental: (§1) Biparatopic VHH-hFc drug conjugates were assessed for human ALPP, ALPPL2, ALPI and ALPL cell-surface binding by flow cytometry. Binders were screened on CHO cells stably expressing human ALPP, ALPPL2, ALPI or ALPL.
(§2) Cell surface binding of test agents to hALPP isoforms was characterized in four CHO-ALPP isoform transfectant cell lines (CHO-ALPP, CHO-ALPPL2, CHO-ALPI and CHO-ALPL) and the resulting KDapp values determined. Adherent cells were detached from tissue culture flasks by incubating with 0.1% EDTA/PBS solution at 37° C. for […] or until cells detached easily. Cells were re-suspended in ice-cold PBS/2% FCS in 15 ml tubes and centrifuged at 1700 rpm for 5 mins at 4° C. Supernatant was removed and the cell pellet re-suspended in PBS/2% FCS. […] Cells were incubated with 100 μl of test agents at a range of concentrations, plus controls for 1 hr on ice. The sample plate was centrifuged at 1700 rpm for 5 mins at 4° C. The supernatant was removed, and a wash performed by re-suspending the cell pellets in 0.25 mL of ice-cold PBS/2% FCS using a multichannel pipette. Samples were again centrifuged at 1700 rpm for 5 min at 4° C. Supernatant was removed and two further washes performed as described. After the final wash and centrifugation step, excess liquid was removed by blotting the plate on tissue paper. Binding of VHH-hFc agents was determined by adding 100 μl of Fitc-anti-human Ab (ThermoFisher) and incubating for 30 mins on ice in the dark. Wash steps were performed as described previously. All cell pellets were finally re-suspended in 0.28 ml of ice-cold PBS/2% FCS and left on ice in the dark prior to analysis on a Merck-Millipore Guava EasyCyte HT or Thermo Fisher Attune N×T flow cytometer.

human ALPI on CHO cells = target: T2, human ALPI on CHO cells (human, UniProt P09923 20-503); experiment: flow cytometry, CHO cells stably expressing human ALPI; PDC detected with FITC anti-human Ab
T2 construct: whole, on cells; also called CHO-ALPI
T2 sequence (looked up): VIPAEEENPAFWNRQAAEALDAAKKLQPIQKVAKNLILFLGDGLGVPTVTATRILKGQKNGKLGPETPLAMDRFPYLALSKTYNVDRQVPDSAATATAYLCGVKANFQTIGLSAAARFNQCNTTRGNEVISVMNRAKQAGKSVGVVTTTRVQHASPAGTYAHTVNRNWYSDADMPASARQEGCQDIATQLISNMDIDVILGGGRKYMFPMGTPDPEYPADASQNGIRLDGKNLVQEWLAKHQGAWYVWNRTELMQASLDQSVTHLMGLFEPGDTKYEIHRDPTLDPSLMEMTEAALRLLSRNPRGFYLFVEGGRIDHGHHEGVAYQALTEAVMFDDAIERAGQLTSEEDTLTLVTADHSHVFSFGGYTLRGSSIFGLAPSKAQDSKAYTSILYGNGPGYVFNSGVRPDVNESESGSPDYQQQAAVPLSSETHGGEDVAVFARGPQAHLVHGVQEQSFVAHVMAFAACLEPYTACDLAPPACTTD
Experimental: as §1, §2

[1] = target: T3, human ALPL (tissue non-specific alkaline phosphatase) expressed on the surface of CHO cells (human, UniProt P05186 18-501); experiment: flow cytometry, CHO-ALPL cells
T3 construct: whole, on cells; The cell-surface form has none; also called CHO-ALPL; hALPL
T3 sequence (looked up): T1 sequence (looked up)

[2] = target: T4, human ALPP (alkaline phosphatase, placental type) expressed on the surface of CHO cells (human, UniProt P05187 23-506); experiment: flow cytometry on CHO-ALPP cells, apparent KD (KDapp)
T4 construct: also called CHO-ALPP; hALPP
T4 sequence (P05187 23-506 limits assumed): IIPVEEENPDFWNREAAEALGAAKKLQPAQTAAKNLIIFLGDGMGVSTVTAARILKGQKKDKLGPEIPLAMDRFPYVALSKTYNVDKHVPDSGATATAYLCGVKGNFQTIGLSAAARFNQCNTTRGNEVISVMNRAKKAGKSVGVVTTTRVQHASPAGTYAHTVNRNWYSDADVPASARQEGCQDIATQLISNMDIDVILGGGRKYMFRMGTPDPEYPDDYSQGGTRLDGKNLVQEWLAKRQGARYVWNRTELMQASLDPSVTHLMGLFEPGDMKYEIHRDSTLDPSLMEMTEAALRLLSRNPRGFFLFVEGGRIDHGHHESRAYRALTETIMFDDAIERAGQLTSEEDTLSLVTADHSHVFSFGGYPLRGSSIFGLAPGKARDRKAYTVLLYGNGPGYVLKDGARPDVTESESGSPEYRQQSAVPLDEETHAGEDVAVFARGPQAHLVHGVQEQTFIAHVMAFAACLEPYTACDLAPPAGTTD
How it was run: (§3)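 Cell-surface binding to CHO cells stably transfected with human ALPP, ALPPL2, ALPI or ALPL; cells detached with 0.1% EDTA/PBS, incubated with biparatopic VHH-hFc drug conjugates over a concentration range for 1 hr on ice. Bound agent detected with FITC anti-human Ab (30 min, ice, dark) by flow cytometry; KDapp derived from binding.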

[3] = target: T5, human ALPPL2 (alkaline phosphatase, germ cell type) expressed on the surface of CHO cells (human, UniProt P10696 20-503); experiment: cell-based or functional assay
T5 sequence (P10696 20-503): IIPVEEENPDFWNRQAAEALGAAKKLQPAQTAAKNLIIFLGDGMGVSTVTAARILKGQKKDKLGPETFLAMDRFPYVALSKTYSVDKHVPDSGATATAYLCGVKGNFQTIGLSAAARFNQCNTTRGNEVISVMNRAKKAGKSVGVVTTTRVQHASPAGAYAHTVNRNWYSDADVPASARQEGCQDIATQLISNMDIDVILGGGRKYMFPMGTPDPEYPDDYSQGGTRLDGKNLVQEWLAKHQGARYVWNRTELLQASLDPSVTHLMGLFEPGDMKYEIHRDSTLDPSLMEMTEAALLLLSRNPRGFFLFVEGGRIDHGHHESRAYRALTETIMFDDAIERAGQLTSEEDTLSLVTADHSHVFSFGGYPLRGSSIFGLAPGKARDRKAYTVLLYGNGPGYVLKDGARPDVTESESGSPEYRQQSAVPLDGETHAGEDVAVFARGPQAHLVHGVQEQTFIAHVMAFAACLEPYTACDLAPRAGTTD

[4] = target: T3, human ALPL (tissue non-specific …); experiment: cell-based or functional assay
[5] = target: T6, human ALPI (intestinal alkaline phosphatase) expressed on the surface of CHO cells (human, UniProt P09923 20-503); experiment: cell-based or functional assay
T6 sequence (looked up): T2 sequence (looked up)

[6] = target: T5, human ALPPL2 (alkaline phosphatase, …); experiment: flow cytometry on CHO-ALPPL2 cells, apparent KD (KDapp)
How it was run: as §3

[7] = target: T6, human ALPI (intestinal alkaline …); experiment: flow cytometry, CHO-ALPI cells

- binding result (human ALPL on CHO cells): no binding (tested: 350 nM)
- binding result (human ALPI on CHO cells): no binding (tested: 350 nM)
B1: D10-E06-hFc-vcPAB-MMAE [G4S]1 (Fc fusion, DAR 4)
chain 1: QVQLVESGGGLVQPGGSLRLSCAASGSIFSVNTMGWYRQAPGKQRDLVAVATSGGTIHYADSVKGRFTISRDNAKNTVYLQMNSLKPEDTAVYYCNLVVPYGMIAGDHDYWGQGTKVTVSSGGGGSEPKSSDKTHTCPPCPAPELLGGPCVFLFPPKPKDTLMISRTPEVTCVVVDVSHEDPEVKFNWYVDGVEVHNAKTKPREEQYNSTYRVVSVLTVLHQDWLNGKEYKCKVSNKALPAPIEKTISKAKGQPREPQVYTLPPSRDELTKNQVSLYCLVKGFYPSDIAVEWESNGQPENNYKTTPPVLDSDGSFFLYSKLTVDKSRWQQGNVFSCSVMHEALHNHYTQKSLCLSPGK
chain 2: QVHLVESGGGLVQAGGSLRLSCAASRRSFSEYAMGWFRQAPGKEREFVAAIGWSGVIEYADSVKGRFTISRDNAKDTVYLQMNSLKPEDTAVYYCAAGLGIRVVSQTPAYWGQGTQVTVSSGGGGSEPKSSDKTHTCPPCPAPELLGGPCVFLFPPKPKDTLMISRTPEVTCVVVDVSHEDPEVKFNWYVDGVEVHNAKTKPREEQYNSTYRVVSVLTVLHQDWLNGKEYKCKVSNKALPAPIEKTISKAKGQPREPQVYTLPPSRDELTKNQVSLTCLVKGFYPSDIAVEWESNGQPENNYKTTPPVLDSDGSFFLTSKLTVDKSRWQQGNVFSCSVMHEALHNHYTQKSLCLSPGK
modifications: MC-vc-PAB-MMAE on Cys 239 and Cys 442 (EU numbering)
notes: Biparatopic drug conjugate, DAR 4

- binding result (human ALPL on CHO cells): no binding (tested: 350 nM)
- binding result (human ALPI on CHO cells): no binding (tested: 350 nM)
B2: D10-E10-hFc-vcPAB-MMAE [G4S]1 (Fc fusion, DAR 4)
chain 1: B1 chain 1
chain 2: QVQLVESGGGLVQAGGSLRLSCAVSGRALSDYNIGWFRQAPGKEREFVARKTWDGSSTRYDDSVKGRFTVSIEDAKNTAYLQMSSLKTEDTAVYYCAAGRYSRARGWEYDYWGQGTQVTVSSGGGGSEPKSSDKTHTCPPCPAPELLGGPCVFLFPPKPKDTLMISRTPEVTCVVVDVSHEDPEVKFNWYVDGVEVHNAKTKPREEQYNSTYRVVSVLTVLHQDWLNGKEYKCKVSNKALPAPIEKTISKAKGQPREPQVYTLPPSRDELTKNQVSLTCLVKGFYPSDIAVEWESNGQPENNYKTTPPVLDSDGSFFLTSKLTVDKSRWQQGNVFSCSVMHEALHNHYTQKSLCLSPGK
modifications: MC-vc-PAB-MMAE on Cys 239 and Cys 442 (EU numbering)
notes: as for B1

- binding result (human ALPL on CHO cells): no binding (tested: 350 nM)
- binding result (human ALPI on CHO cells): no binding (tested: 350 nM)
B3: D10-F05-hFc-vcPAB-MMAE [G4S]1 (Fc fusion, DAR 4)
chain 1: B1 chain 1
chain 2: B2 chain 2 with V24A, L29F, S30G, K51R, E73D, D74N, S84N, A104V
modifications: MC-vc-PAB-MMAE on Cys 239 and Cys 442 (EU numbering)
notes: Biparatopic drug conjugate, DAR 4; also called #679

- Kd [2]: 6.8 nM
- Kd [6]: 4.7 nM
B4: D10 E10-hFc (S239/442C T366Y/Y407T), [G4S]3 linker, MC-vc-PAB-MMAE conjugate, #636 (Fc fusion, DAR 4)
chain 1: QVQLVESGGGLVQPGGSLRLSCAASGSIFSVNTMGWYRQAPGKQRDLVAVATSGGTIHYADSVKGRFTISRDNAKNTVYLQMNSLKPEDTAVYYCNLVVPYGMIAGDHDYWGQGTKVTVSSGGGGSGGGGSGGGGSEPKSSDKTHTCPPCPAPELLGGPCVFLFPPKPKDTLMISRTPEVTCVVVDVSHEDPEVKFNWYVDGVEVHNAKTKPREEQYNSTYRVVSVLTVLHQDWLNGKEYKCKVSNKALPAPIEKTISKAKGQPREPQVYTLPPSRDELTKNQVSLYCLVKGFYPSDIAVEWESNGQPENNYKTTPPVLDSDGSFFLYSKLTVDKSRWQQGNVFSCSVMHEALHNHYTQKSLCLSPGK
chain 2: QVQLVESGGGLVQAGGSLRLSCAVSGRALSDYNIGWFRQAPGKEREFVARKTWDGSSTRYDDSVKGRFTVSIEDAKNTAYLQMSSLKTEDTAVYYCAAGRYSRARGWEYDYWGQGTQVTVSSGGGGSGGGGSGGGGSEPKSSDKTHTCPPCPAPELLGGPCVFLFPPKPKDTLMISRTPEVTCVVVDVSHEDPEVKFNWYVDGVEVHNAKTKPREEQYNSTYRVVSVLTVLHQDWLNGKEYKCKVSNKALPAPIEKTISKAKGQPREPQVYTLPPSRDELTKNQVSLTCLVKGFYPSDIAVEWESNGQPENNYKTTPPVLDSDGSFFLTSKLTVDKSRWQQGNVFSCSVMHEALHNHYTQKSLCLSPGK
modifications: MC-vc-PAB-MMAE on Cys of S239C and S442C (EU numbering)
notes: Biparatopic knob-into-hole VHH-hFc heterodimer, DAR 4; also called D10-E10 hFc-vcPAB-MMAE; D10-E10 hFc-vc-MMAE
- binding result [1]: no binding (tested: 350 nM (highest concentration))
- IC50 at 96 h, cell-killing of CHO-ALPPL2 cells [3]: 12.5 nM
- IC50 at 96 h, cell-killing of CHO-ALPL cells [4]: > 1000 nM
- IC50 at 96 h, cell-killing of CHO-ALPI cells [5]: > 1000 nM
- binding result [7]: no binding (tested: 350 nM (highest concentration))

- binding result (human ALPL on CHO cells): no binding (tested: 350 nM)
- binding result (human ALPI on CHO cells): no binding (tested: 350 nM)
B5: D10-E10 hFc-vcPAB-MMAE [G4S]3 (Fc fusion, DAR 4)
chain 1: B4 chain 1
chain 2: B4 chain 2
modifications: MC-vc-PAB-MMAE on Cys 239 and Cys 442 (EU numbering)
notes: as for B1

- binding result (human ALPL on CHO cells): no binding (tested: 350 nM)
- binding result (human ALPI on CHO cells): no binding (tested: 350 nM)
B6: D10-F05 hFc-vcPAB-MMAE [G4S]3 (Fc fusion, DAR 4)
chain 1: B4 chain 1
chain 2: B4 chain 2 with V24A, L29F, S30G, K51R, E73D, D74N, S84N, A104V
modifications: MC-vc-PAB-MMAE on Cys 239 and Cys 442 (EU numbering)
notes: Biparatopic drug conjugate, DAR 4; also called #637
